These are literature values, as cited in publication PMC11784315.

By Kd is commonly meant the free concentration of one partner at which half of the binding sites on the other are occupied at equilibrium, for simple one-to-one binding.

This series has as its target Spike S1 S1 (Severe acute respiratory syndrome coronavirus 2) (UniProt P0DTC2).

DC-SIGN, sequence (Q9NNX6 whole entry): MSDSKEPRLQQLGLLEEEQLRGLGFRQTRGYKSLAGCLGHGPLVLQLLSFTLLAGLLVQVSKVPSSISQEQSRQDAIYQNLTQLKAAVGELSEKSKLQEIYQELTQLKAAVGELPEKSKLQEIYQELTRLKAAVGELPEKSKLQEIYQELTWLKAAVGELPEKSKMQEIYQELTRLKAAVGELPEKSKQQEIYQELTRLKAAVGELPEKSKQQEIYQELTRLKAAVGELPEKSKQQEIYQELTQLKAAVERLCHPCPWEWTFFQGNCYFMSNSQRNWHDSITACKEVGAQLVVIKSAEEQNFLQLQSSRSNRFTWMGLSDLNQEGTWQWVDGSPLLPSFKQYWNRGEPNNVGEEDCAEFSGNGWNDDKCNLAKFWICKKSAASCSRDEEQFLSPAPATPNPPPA

As for DC-SIGN (from UniProt Q9NNX6), the Kd is 420 nM.
